Key:
[1] = molecular target: T1, Cytochrome f (soluble form, subunit of the cytochrome b 6 f complex) (Nostoc sp. PCC 7119, UniProt Q93SW9 45-298, heme group; reduced for ITC); assay: ITC
T1 chain: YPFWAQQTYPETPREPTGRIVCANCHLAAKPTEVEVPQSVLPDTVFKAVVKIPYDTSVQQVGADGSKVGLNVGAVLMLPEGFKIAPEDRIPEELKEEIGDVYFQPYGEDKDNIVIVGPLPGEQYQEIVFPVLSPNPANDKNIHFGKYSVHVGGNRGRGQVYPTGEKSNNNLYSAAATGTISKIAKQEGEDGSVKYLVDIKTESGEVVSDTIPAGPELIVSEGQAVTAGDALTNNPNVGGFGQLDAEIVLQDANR

[2] = molecular target: T1, Cytochrome f (soluble form, subunit of …); assay: ITC
[3] = molecular target: Cytochrome f (soluble form, subunit of the cytochrome b 6 f complex) (Nostoc sp. PCC 7119) (UniProt Q93SW9); assay: ITC; oxidised Cyt c 6, c 6BC or c 6D (400 uM) injected (2 uL injections) into reduced Cyt f (40 uM) in the cell; 5 mM phosphate buffer pH 7.5, 0.02% (w/v) Triton X-100, 25 °C; single binding site model
[4] = molecular target: T2, Cytochrome f (soluble form, subunit of the cytochrome b 6 f complex) (Nostoc sp. PCC 7119, UniProt Q93SW9 45-298, heme group; reduced for ITC); assay: as above; settings: both partners purified
T2 construct: Cytochrome f, subunit of the cytochrome b6f complex, soluble form heterologously expressed; construct as described in earlier work (Albarran et al., 2005); PCC 7120; Soluble form: as far as I recall, the lumenal domain without the C-terminal membrane anchor and without the signal peptide; also called Cyt f; soluble Cyt f; source: E. coli co-transformed with pEC86, extracted from the periplasmic …
T2 sequence (looked up): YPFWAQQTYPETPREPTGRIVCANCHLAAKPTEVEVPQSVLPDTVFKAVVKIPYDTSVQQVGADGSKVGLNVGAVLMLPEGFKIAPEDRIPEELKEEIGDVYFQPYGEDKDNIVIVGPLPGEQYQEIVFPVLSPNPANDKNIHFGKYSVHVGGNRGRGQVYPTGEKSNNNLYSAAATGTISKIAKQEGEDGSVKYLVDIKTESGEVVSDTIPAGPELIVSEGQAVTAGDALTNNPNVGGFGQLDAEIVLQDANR

Ka [1] | Kd [2] | fold higher KA and fold lower KD than for Cyt c 6 and Cyt c 6BC with Cyt f [3] | stoichiometry N [3] | stoichiometry N [4] | Binder
500000 M⁻¹ | 2 µM | 6 fold | 1 | – | Cytochrome c 6D (natural protein, heme group; oxidised for ITC) AELPTGAKIFNNNCASCHIGGGNILISEKTLKKEALLKYLEDYETNSIQAIIHQIQYGKNAMPAFKDKLSTEEILEVAAYIFQKAEKDWSNLEKEG
89000 M⁻¹ | 11 µM | – | 1 | – | Cytochrome c 6BC (natural protein, heme group; oxidised for ITC) ENTINGEQIFSVHCAGCHINGSNIIRRGKNLQKKTLKKYGMDSLEAIEAIVTNGKNNMSAYKDRLSEQEIQDVAAYVLEQAEKGWR
78000 M⁻¹ | 13 µM | – | – | 1 | Cytochrome c 6 (natural protein, Nostoc sp. PCC 7119, UniProt P0A3X8 26-111, looked up, heme group; oxidised for ITC, Cytochrome c6 (petJ) of Nostoc sp; PCC 7119; also called Cyt c 6; source: E. coli co-transformed with pEC86, extracted from the periplasmic fraction, purified (ion exchange chromatography)) ADSVNGAKIFSANCASCHAGGKNLVQAQKTLKKADLEKYGMYSAEAIIAQVTNGKNAMPAFKGRLKPEQIEDVAAYVLGKADADWK
